This is an account of results in patent publication US20140377287A1 (published 2014).

Assay [1] addresses T1, human Trop-2 (human, UniProt P09758 27-323).
T1 construct: whole, on cells; Type-I transmembrane glycoprotein; also called EGP-1; epithelial glycoprotein-1
T1 sequence (looked up): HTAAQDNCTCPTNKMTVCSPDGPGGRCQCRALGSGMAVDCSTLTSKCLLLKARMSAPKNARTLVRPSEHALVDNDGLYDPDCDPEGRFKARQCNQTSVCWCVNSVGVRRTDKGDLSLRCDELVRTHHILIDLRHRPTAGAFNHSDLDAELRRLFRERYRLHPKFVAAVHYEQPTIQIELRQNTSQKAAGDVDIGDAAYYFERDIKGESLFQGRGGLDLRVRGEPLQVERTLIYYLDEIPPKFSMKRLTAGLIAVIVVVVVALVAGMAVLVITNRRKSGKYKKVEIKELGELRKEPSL
The assay is described as follows: cell binding assay on Trop-2-expressing cells (cell line not stated).

Assay [2] addresses T1, human Trop-2. The assay is described as follows: cell binding on NCI-N87 cells, anti-mouse-HRP secondary, luminescence, 0.03 to 66 nM, 4 C.

hRS7-CL2A-SN-38 (antibody): in assay [1], the Kd came to 1.2 nM.

The molecule hRS7-CL2-SN-38 (antibody) came in with a Kd in assay [1] of 1.2 nM.

B1: murine RS7 (antibody, V domains shown)
VH: VKLQESGPELKKPGETVKISCKASGYTFTNYGMNWVKQAPGKGLKWMGWINTYTGEPTYTDDFKGRFAFSLETSATTAYLQINNLKSEDMATYFCARGGFGSSYWYFDVWGQGTTVTVSS
VL: DIQLTQSHKFMSTSVGDRVSITCKASQDVSIAVAWYQQKPGQSPKLLIYSASYRYTGVPDRFTGSGSGTDFTFTISSVQAEDLAVYYCQQHYITPLTFGAGTKLELK
B1 returned a Kd in assay [2] of 0.57 nM.

Broadly, the Kd is the constant that tells how readily two partners part at equilibrium. The low end stands for tighter binding, the high end for weaker binding.
